The experiment has as its target EGFP-Rab5 (wild type) (UniProt P20339). In words: FRET or BRET. A general note: Bioluminescence resonance energy transfer reports proximity on the nanometre scale.
Chain of UniProt P20339 (P20339 whole entry): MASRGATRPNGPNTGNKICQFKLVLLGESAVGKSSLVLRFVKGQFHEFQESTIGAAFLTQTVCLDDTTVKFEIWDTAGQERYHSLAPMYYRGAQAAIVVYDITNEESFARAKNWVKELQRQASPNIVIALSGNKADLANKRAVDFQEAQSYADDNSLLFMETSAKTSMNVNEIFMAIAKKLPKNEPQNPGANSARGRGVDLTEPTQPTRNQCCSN

B1: mRFP-DRG2 (human DRG2) (natural protein)
chain: MGILEKISEIEKEIARTQKNKATEYHLGLLKAKLAKYRAQLLEPSKSASSKGEGFDVMKSGDARVALIGFPSVGKSTFLSLMTSTASEAASYEFTTLTCIPGVIEYKGANIQLLDLPGIIEGAAQGKGRGRQVIAVARTADVIIMMLDATKGEVQRSLLEKELESVGIRLNKHKPNIYFKPKKGGGISFNSTVTLTQCSEKLVQLILHEYKIFNAEVLFREDCSPDEFIDVIVGNRVYMPCLYVYNKIDQISMEEVDRLARKPNSVVISCGMKLNLDYLLEMLWEYLALTCIYTKKRGQRPDFTDAIILRKGASVEHVCHRIHRSLASQFKYALVWGTSTKYSPQRVGLTHTMEHEDVIQIVKK
As to B1, the FRET efficiency was 10%.

The values are drawn from paper PMC4713135.
